Results on eleven molecules are retold here after US20090202547A1 (FIBRON, published 2009).

T1: FR1exFc (UniProt P11362 22-376, limits assumed)
T1 construct: extracellular domain; also called FGFR1/Fc; FR1/Fc; not shown: Fc part; the construct of FR1exFc is not described
T1 sequence (looked up): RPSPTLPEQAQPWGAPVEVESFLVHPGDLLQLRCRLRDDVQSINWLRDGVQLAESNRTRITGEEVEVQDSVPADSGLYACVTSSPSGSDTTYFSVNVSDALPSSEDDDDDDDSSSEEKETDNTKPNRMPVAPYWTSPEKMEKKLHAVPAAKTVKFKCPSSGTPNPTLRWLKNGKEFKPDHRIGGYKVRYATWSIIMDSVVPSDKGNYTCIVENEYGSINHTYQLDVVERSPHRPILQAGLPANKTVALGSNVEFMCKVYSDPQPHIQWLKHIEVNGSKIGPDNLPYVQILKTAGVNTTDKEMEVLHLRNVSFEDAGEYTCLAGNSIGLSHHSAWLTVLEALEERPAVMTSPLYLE

T2: hFR3^D2Fc (human, UniProt P22607 143-250)
T2 construct: Only domain 2 of the entry stood in the assay; also called product of pChFR3^D2Fc; not shown: human Fc
T2 sequence: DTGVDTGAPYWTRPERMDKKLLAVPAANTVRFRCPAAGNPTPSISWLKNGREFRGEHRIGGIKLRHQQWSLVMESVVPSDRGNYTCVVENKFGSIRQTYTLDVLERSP

B1: MSPRO59 (Fab, V domains shown)
VH: QVQLQQSGPGLVKPSQTLSLTCAISGDSVSSNSAAWNWIRQSPGRGLEWLGRTYYRSKWYNDYAVSVKSRITINPDTSKNQFSLQLNSVTPEDTAVYYCARSYYPDFDYWGQGTLVTVSS
VL: DIELTQPPSVSVAPGQTARISCSGDALGDKYASWYQQKPGQAPVLVIYDDSDRPSGIPERFSGSNSGNTATLTISGTQAEDEADYYCQSYDGPDLWVFGGGTKLTVLG
notes: HuCAL Fab, framework VH6_L3
B2: MSPRO28 (Fab, V domains shown)
VH: QVQLVQSGAEVKKPGSSVKVSCKASGGTFSSYAISWVRQAPGQGLEWMGGIIPIFGTANYAQKFQGRVTITADESTSTAYMELSSLRSEDTAVYYCARGGGWVSHGYYYLFDLWGQGTLVTVSS
VL: DIQMTQSPSSLSASVGDRVTITCRASQGISSYLAWYQQKPGKAPKLLIYAASSLQSGVPSRFSGSGSGTDFTLTISSLQPEDFAVYYCFQYGSIPPTFGQGTKVEIKR
B3: MSPRO55 (Fab, V domains shown)
VH: QVQLVQSGAEVKKPGASVKVSCKASGYTFTSYYMHWVRQAPGQGLEWMGWINPNSGGTNYAQKFQGRVTMTRDTSISTAYMELSSLRSEDTAVYYCARSMNSTMYWYLRRVLFDHWGQGTLVTVSS
VL: DIALTQPASVSGSPGQSITISCTGTSSDVGGYNYVSWYQQHPGKAPKLMIYDVSNRPSGVSNRFSGSKSGNTASLTISGLQAEDEADYYCQSYDMYNYIVFGGGTKLTVLG
B4: MSPRO54 (Fab, V domains shown)
VH: QVQLVQSGAEVKKPGASVKVSCKASGYTFTSYYMHWVRQAPGQGLEWMGWINPNSGGTNYAQKFQGRVTMTRDTSISTAYMELSSLRSEDTAVYYCARNMAYTNYQYVNMPHFDYWGQGTLVTVSS
VL: DIELTQPPSVSVAPGQTARISCSGDALGDKYASWYQQKPGQAPVLVIYDDSDRPSGIPERFSGSNSGNTATLTISGTQAEDEADYYCQSYDYFKLVFGGGTKLTVLG
B5: MSPRO12 (Fab, V domains shown)
VH: QVQLKESGPALVKPTQTLTLTCTFSGFSLSTSGVGVGWIRQPPGKALEWLALIDWDDDKYYSTSLKTRLTISKDTSKNQVVLTMTNMDPVDTATYYCARYHSWYEMGYYGSTVGYMFDYWGQGTLVTVSS
VL: B4 VL with Y92F, F93D, K94F, L95A
notes: HuCAL Fab, framework VH2_L3
B6: MSPRO11 (Fab, V domains shown)
VH: QVQLVQSGAEVKKPGASVKVSCKASGYTFTSYYMHWVRQAPGQGLEWMGWINPNSGGTNYAQKFQGRVTMTRDTSISTAYMELSSLRSEDTAVYYCARYYGSSLYHYVFGGFIDYWGQGTLVTVSS
VL: DIALTQPASVSGSPGQSITISCTGTSSDVGGYNYVSWYQQHPGKAPKLMIYDVSNRPSGVSNRFSGSKSGNTASLTISGLQAEDEADYYCQSHHFYEVFGGGTKLTVLG
B7: MSPRO24 (Fab, V domains shown)
VH: QVQLVQSGAEVKKPGSSVKVSCKASGGTFSSYAISWVRQAPGQGLEWMGGIIPIFGTANYAQKFQGRVTITADESTSTAYMELSSLRSEDTAVYYCARVNHWTYTFDYWGQGTLVTVSS
VL: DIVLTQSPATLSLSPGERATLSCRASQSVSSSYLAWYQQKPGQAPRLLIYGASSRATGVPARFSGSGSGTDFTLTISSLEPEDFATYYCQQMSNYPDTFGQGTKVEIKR
B8: MS-Pro-28-dHLX-MH (Fab, V domains shown)
VH: B2 VH
VL: B2 VL
notes: Fab mini-antibody format Fab-dHLX-MH, a dimer of the Fab monomer; also called MSPRO28 Fab-dHLX
B9: MS-Pro-26-dHLX-MH (Fab, V domains shown)
VH: QVQLVQSGAEVKKPGASVKVSCKASGYTFTSYYMHWVRQAPGQGLEWMGWINPNSGGTNYAQKFQGRVTMTRDTSISTAYMELSSLRSEDTAVYYCARGYWYAYFTYINYGYFDNWGQGTLVTVSS
VL: B3 VL with M95N, Y96N, N97S, Y98D, I99V
notes: Fab mini-antibody format Fab-dHLX-MH, a dimer of the Fab monomer; also called MSPRO26 dimeric dHLX format; Fab-dHLX
B10: MS-Pro-11-dHLX-MH (Fab, V domains shown)
VH: B6 VH
VL: B6 VL
notes: Fab mini-antibody format Fab-dHLX-MH, a dimer of the Fab monomer; also called MSPRO11 Fab-dHLX
B11: MS-Pro-24-dHLX-MH (Fab, V domains shown)
VH: B7 VH
VL: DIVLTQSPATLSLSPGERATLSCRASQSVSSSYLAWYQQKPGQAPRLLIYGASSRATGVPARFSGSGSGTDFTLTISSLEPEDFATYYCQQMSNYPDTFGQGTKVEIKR
notes: Fab mini-antibody format Fab-dHLX-MH, a dimer of the Fab monomer; also called MSPRO24 Fab-dHLX

Positions count from the first letter of the chain named. Where only a bound is given, the exact number is not on record here.

One experiment deals with T3, FR3exFc (human).
T3 construct: also called FGFR3/Fc; FR3/Fc
T3 sequence (chain, as listed by the source limits assumed): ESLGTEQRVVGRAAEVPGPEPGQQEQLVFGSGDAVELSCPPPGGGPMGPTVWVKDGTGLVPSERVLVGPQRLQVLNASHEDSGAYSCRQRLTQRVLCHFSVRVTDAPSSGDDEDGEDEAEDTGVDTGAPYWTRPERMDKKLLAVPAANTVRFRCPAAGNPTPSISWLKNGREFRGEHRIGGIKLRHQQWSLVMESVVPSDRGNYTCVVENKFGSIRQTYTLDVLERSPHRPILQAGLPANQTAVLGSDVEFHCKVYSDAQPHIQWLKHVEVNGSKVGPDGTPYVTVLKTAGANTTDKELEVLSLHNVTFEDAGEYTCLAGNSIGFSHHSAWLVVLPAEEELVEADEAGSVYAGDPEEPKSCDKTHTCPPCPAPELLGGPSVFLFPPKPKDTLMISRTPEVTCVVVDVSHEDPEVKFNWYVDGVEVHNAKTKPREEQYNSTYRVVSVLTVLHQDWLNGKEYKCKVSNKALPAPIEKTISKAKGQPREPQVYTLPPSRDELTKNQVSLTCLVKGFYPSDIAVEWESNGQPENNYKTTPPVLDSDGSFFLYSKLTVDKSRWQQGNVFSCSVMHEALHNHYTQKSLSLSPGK
Briefly: BIACORE, FGFR3 captured on an anti-Fc chip. Here is the method: (§1) The affinity measurements were performed by BIACORE® analysis according to the standard procedure recommended by the supplier (Pharmacia). The anti-Fc antibody was coupled via the EDC/NHS chemistry to the chip and subsequently FGFR3 was captured. The Fabs of the invention were then bound to this surface.
(In general: In SPR one partner is held on a chip, and binding of the other changes the refractive index at the surface.)
The Kd is the free concentration of one partner at which half of the binding sites on the other are occupied at equilibrium, for simple one-to-one binding. B1 came in with a Kd of 1.5 nM.

Molecule B2 had a Kd of 9 nM.

Take B3: the Kd is 2.9 nM.

As to B4, the dissociation constant Kd worked out at 3.7 nM.

In the case of B5, the Kd came out at 14 nM.

In turn, B6 came in with a Kd of 4 nM.

B7 came in with a Kd of 10 nM.

Another experiment concerns the target T1, FR1exFc. Briefly: Affinity to FGFR1 (BIACORE and/or FACS).
In turn, B2 had a Kd of 160 nM.

In turn, B4 displayed a dissociation constant Kd of 2.5 nM.

The target in another experiment is T3, FR3exFc. The experiment in a line: BIAcore; number in parentheses taken as the monomeric Fab. Here is the method: as §1
On to B2, for which the equilibrium dissociation constant (Kd) was 9 nM.

Regarding B5, the Kd is 14 nM.

Turning to B6, the Kd stood at 4 nM.

As to B7, the Kd turned out to be 10 nM.

The next experiment deals with T3, FR3exFc. The experiment in a line: BIACORE. Here is the method: as §1
In general, koff refers to the first-order rate constant of dissociation. In turn, B1 had a koff of 0.00071 s⁻¹.

The molecule B2 registered a koff of 0.004 s⁻¹.

B3: the koff was 0.00074 s⁻¹.

B4 showed a koff of 0.002 s⁻¹.

Turning to B5, the off-rate (koff) was 0.0023 s⁻¹.

B6 gave a koff of 0.0004 s⁻¹.

As to B7, the koff was found to be 0.0054 s⁻¹.

In a further experiment the target is T4, FGFR3 (wild type) on cells (human, UniProt P22607 23-806).
T4 construct: also called FDCP-FR3; FDCP-FGFR3
T4 sequence (P22607 23-806 limits assumed): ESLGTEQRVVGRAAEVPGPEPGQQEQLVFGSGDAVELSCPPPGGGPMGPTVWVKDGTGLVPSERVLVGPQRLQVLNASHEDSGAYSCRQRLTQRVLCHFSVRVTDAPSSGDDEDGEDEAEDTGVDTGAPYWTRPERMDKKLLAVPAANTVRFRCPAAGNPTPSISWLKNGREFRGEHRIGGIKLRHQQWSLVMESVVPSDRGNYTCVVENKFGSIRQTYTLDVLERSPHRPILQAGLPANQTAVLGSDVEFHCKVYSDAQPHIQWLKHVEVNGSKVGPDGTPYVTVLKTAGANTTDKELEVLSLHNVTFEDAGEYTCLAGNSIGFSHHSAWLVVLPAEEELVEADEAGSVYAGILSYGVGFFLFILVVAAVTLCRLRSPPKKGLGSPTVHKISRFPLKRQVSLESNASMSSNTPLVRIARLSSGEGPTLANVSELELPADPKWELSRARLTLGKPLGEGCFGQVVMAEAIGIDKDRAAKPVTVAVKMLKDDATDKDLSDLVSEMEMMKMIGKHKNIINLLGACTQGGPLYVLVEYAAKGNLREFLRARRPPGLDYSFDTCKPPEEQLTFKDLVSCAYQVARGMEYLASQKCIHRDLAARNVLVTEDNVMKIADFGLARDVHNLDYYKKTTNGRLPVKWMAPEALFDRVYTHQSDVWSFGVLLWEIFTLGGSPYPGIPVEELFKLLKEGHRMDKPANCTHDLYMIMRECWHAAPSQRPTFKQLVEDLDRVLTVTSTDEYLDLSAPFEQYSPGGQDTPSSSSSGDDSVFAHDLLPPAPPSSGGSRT
The experiment in a line: indirect FACS-Scatchard.
B2 displayed a dissociation constant (Kd) of 0.3 nM.

B5: binding was put at a Kd of 6.5 nM.

As for B6, binding was put at a Kd of 4 nM.

The molecule B7 had a Kd of 0.3 nM.

In a further experiment the target is T2, hFR3^D2Fc. Briefly: ELISA, Fc fusion anchored on an anti-human Fc coated plate, bound Fab detected with HRP anti-human Fab. From the text: Constructs comprising cDNAs that code for segments of the extracellular domain of FGFR3 were generated (FIG. 10). D2 comprises Ig domain 2, D2-3 comprises Ig domains 2 and 3, and D1-3 comprises Ig domains 1, 2 and 3. These constructs include pChFR3^D2Fc that codes for Ig-like domain 2 of FGFR3 and pChFR3^{D2,3}Fc that codes for domain 2 and 3, both as human Fc fusions. The corresponding chimeric proteins, as well as the control hFR3exFc (containing domains 1, 2 and 3) were anchored to an ELISA plate coated with a human Fc antibody. A panel of 8 best Fabs, MSPRO2, 11, 12, 21, 24, 26, 28 and 29, were added, and bound Fab was determined with HRP-α human Fab (FIG. 11). […] Both bind to the Ig like domain 2 while the others require domain 3 for binding. It was then tested whether or not Fabs that belong to the second group would distinguish the FGFR3IIIc isoform from the FGFRIIIb from. FDCP-FR3IIIb or FDCP-FR3IIIc cells were incubated in the presence of 1.25 ng/ml FGF9 with increasing doses of either MSPRO12 or MSPRO29. Ly6.3 was included as control. After 2 days in culture, cell proliferation was measured with the XTT reagent. Clearly, MSPRO29 (open triangle) was completely ineffective against the IIIb isoform (FIG. 12).
Take B2: the binding result was “no binding”.

For the molecule B6, the binding result is “no binding”.

As to B7, the binding result is on record as “no binding”.

In a further experiment the target is T4, FGFR3 (wild type) on cells. Briefly: FACS. In general terms: Flow cytometry measures light scatter and fluorescence of single cells or particles in a stream.
In turn, B1 gave a Kd of under 1 nM.

B2: the Kd was determined as 0.3 nM.

With B5, the affinity, expressed as Kd, was 6.5 nM.

As to B6, the Kd came out at 4 nM.

For the next experiment, the target named is T3, FR3exFc. Briefly: BIAcore, Fab-dHLX-MH miniantibody.
B8 yielded a Kd of 1.6 nM.

For B9, the equilibrium dissociation constant (Kd) was 2 nM.

Take B10: the Kd came out at 0.7 nM.

The molecule B11 registered a Kd of 2 nM.

The target of the next experiment is T4, FGFR3 (wild type) on cells. Briefly: cell-based or functional assay.
Take B9: the “IC50, FDCP-FGFR3 proliferation assay with FGF9, dimeric dHLX format” value is 8 nM.

For the molecule B5, the “IC50, FDCP-FGFR3 proliferation assay with FGF9, monomeric Fab (in parentheses)” value amounted to 58 nM.

For a further experiment, the target named is T4, FGFR3 (wild type) on cells. Briefly: cell-based or functional assay. The source holds these as a separate data set.
For B1, the “IC50 FR3 (FGF9), FDCP-FGFR3 proliferation assay” value (from here on “IC50 FR3 (FGF9)”) is 19 nM.

On to B2, for which the “IC50 FR3 (FGF9)” value was 50 nM.

Consider B3, for which the “IC50 FR3 (FGF9)” value came out at 34 nM.

Regarding B4, the “IC50 FR3 (FGF9)” value amounted to 45 nM.

Take B5: the “IC50 FR3 (FGF9)” value was 58 nM.

With B6, the “IC50 FR3 (FGF9)” value was found to be 220 nM.

As for B7, the “IC50 FR3 (FGF9)” value came out at 70 nM.

Another experiment has as its target T3, FR3exFc. The experiment in a line: BIACORE, FGFR3 captured on an anti-Fc chip. This is another data set of the same source. Here is the method:
as §1
Molecule B2 had a Kd of 9 nM.

Turning to B5, the Kd stood at 14 nM.

With B6, the Kd was found to be 4 nM.

With B7, the Kd was 10 nM.
